From paper PMC9700037, “Inflammasome sensor NLRP1 disease variant M1184V promotes autoproteolysis and DPP9 complex formation by stabilizing the FIIND domain” (The Journal of Biological Chemistry, 2022)

Molecular target: the molecule itself
Assay: SEC; purified full-length MBP-NLRP1, Superose 6 increase (10/300) GL, 0.5 ml/min, buffer A (25 mM Hepes pH 7.5, 150 mM NaCl, 0.5 mM TCEP, 10% glycerol); fractions checked by SDS-PAGE

B1: MBP-NLRP1 M1184V (full length) (natural protein, human, UniProt Q9C000 1-1473, looked up)
chain: MAGGAWGRLACYLEFLKKEELKEFQLLLANKAHSRSSSGETPAQPEKTSGMEVASYLVAQYGEQRAWDLALHTWEQMGLRSLCAQAQEGAGHSPSFPYSPSEPHLGSPSQPTSTAVLMPWIHELPAGCTQGSERRVLRQLPDTSGRRWREISASLLYQALPSSPDHESPSQESPNAPTSTAVLGSWGSPPQPSLAPREQEAPGTQWPLDETSGIYYTEIREREREKSEKGRPPWAAVVGTPPQAHTSLQPHHHPWEPSVRESLCSTWPWKNEDFNQKFTQLLLLQRPHPRSQDPLVKRSWPDYVEENRGHLIEIRDLFGPGLDTQEPRIVILQGAAGIGKSTLARQVKEAWGRGQLYGDRFQHVFYFSCRELAQSKVVSLAELIGKDGTATPAPIRQILSRPERLLFILDGVDEPGWVLQEPSSELCLHWSQPQPADALLGSLLGKTILPEASFLITARTTALQNLIPSLEQARWVEVLGFSESSRKEYFYRYFTDERQAIRAFRLVKSNKELWALCLVPWVSWLACTCLMQQMKRKEKLTLTSKTTTTLCLHYLAQALQAQPLGPQLRDLCSLAAEGIWQKKTLFSPDDLRKHGLDGAIISTFLKMGILQEHPIPLSYSFIHLCFQEFFAAMSYVLEDEKGRGKHSNCIIDLEKTLEAYGIHGLFGASTTRFLLGLLSDEGEREMENIFHCRLSQGRNLMQWVPSLQLLLQPHSLESLHCLYETRNKTFLTQVMAHFEEMGMCVETDMELLVCTFCIKFSRHVKKLQLIEGRQHRSTWSPTMVVLFRWVPVTDAYWQILFSVLKVTRNLKELDLSGNSLSHSAVKSLCKTLRRPRCLLETLRLAGCGLTAEDCKDLAFGLRANQTLTELDLSFNVLTDAGAKHLCQRLRQPSCKLQRLQLVSCGLTSDCCQDLASVLSASPSLKELDLQQNNLDDVGVRLLCEGLRHPACKLIRLGLDQTTLSDEMRQELRALEQEKPQLLIFSRRKPSVMTPTEGLDTGEMSNSTSSLKRQRLGSERAASHVAQANLKLLDVSKIFPIAEIAEESSPEVVPVELLCVPSPASQGDLHTKPLGTDDDFWGPTGPVATEVVDKEKNLYRVHFPVAGSYRWPNTGLCFVMREAVTVEIEFCVWDQFLGEINPQHSWMVAGPLLDIKAEPGAVEAVHLPHFVALQGGHVDTSLFQVAHFKEEGMLLEKPARVELHHIVLENPSFSPLGVLLKMIHNALRFIPVTSVVLLYHRVHPEEVTFHLYLIPSDCSIRKAIDDLEMKFQFVRIHKPPPLTPLYMGCRYTVSGSGSGMLEILPKELELCYRSPGEDQLFSEFYVGHLGSGIRLQVKDKKDETLVWEALVKPGDLMPATTLIPPARIAVPSPLDAPQLLHFVDQYREQLIARVTSVEVVLDKLHGQVLSQEQYERVLAENTRPSQMRKLFSLSQSWDRKCKDGLYQALKETHPHLIMELWEKGSKKGLLPLSS
notes: NLRP1, human, isoform 1, residues 1-1473, codon-optimized, natural variant M1184V; More autocleaved between F1212 and S1213 than the wt; source: Sf9 insect cells, purified (MBPTrap, SEC); not shown: MBP, N-terminal, kept
binding result: binds
